We go through four sequences from PMC10599522.

In this series the target is T1, 6his-GSU1771 (Geobacter sulfurreducens (DL1 wild-type background)) (UniProt Q74CA3).
T1 sequence: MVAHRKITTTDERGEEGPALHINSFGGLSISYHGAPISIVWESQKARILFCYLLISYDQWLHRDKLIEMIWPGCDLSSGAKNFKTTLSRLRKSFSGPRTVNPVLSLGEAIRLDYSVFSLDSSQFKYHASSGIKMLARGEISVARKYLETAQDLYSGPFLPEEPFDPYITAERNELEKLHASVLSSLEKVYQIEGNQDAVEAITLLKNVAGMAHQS
The series is described as follows: EMSA. The note with it: 40 mM HEPES, 8 mM MgCl2, 50 mM KCl, 1 mM DTT, 0.05% NP-40, 0.1 mg/ml BSA, 20 ul, 30 C 30 min, pH not stated; 100 ng of each fragment; 6% native PAGE in 0.5X …. (Mobility shift assays separate free from complexed probe on a gel.)
As for “CGCTGGATCTCCTGAAAGGGTGGGAAATCCTGAAAACAATAAGCAAATGAGAGGATGACTTACGCCAAAAGGGGGGGCTCGGGCCCCCCCTTTTTTTATGTAAATCCGATAAGTTCTATATTTGTATTGACACTCCCGTAACGATGTAGTATTCAGTAGGTAAATTAATCACAGTTAAGGTAAGGGTGTATCGCG (double strand) [gsu1771 promoter]”, the binding entry is “binds”.
Take “AGGCTTGCTCGTCTCATGTCGCGCCGCCGTGGGAAAAAGTAGTAACCAGTAGTATATCATTTCGTCACCGTGGTTTCATTGCTTGAGCTTTTTTGCATCCGAAGCGACTCCAGCCTGTGCCCTCCGGCAATAAACCGCTTTTCCCCCGCCGGTGATGGTGGTACTCTCCTCCCATTTCGCGGAGGATGGAGTGCATGGAT (double strand) [gsu3356 promoter]”: the binding entry is “binds”.
Regarding “ACCATCTTCGCATCCCTGTGGAGGATCTCTGCTTTTCCTGCCACGACCGATAGCAGTGACTATTGTGTTGTGGTGGGTGTGTTGTGATGGTGTTGCGGTCATGTTTCTGCTTGTTTTTATTTTTAATTTTACCCATTTTGTGCTAAGAAAATCTAATGGCCCTATACCACTGTAAGCTCGGCTCCTCGGAG (double strand) [pulF promoter]”, the binding entry was “binds”.
As for “GTGGTATTCATGCACGTATTCTAATGACGGCCCGCAACCCAGGTGGAGCCGTCATCCTTTTTTTCGGATATACTGCCTGGATTCACGACTGAACCGGGACGGAAGGCAATAGCCGCACCGACGAGGATAGGATGAGCTTTCCCTTC (double strand) [gsu1704-gsu1705 intergenic region]”, the entry is “no binding”.
